The record followed here is article doi:10.1101/2024.02.23.581826 (bioRxiv, 2024).

Where “and” joins values, the source holds several entries; their conditions need not be identical. Identical values can stand only once. Like-named read-outs stand apart in the source and are kept apart here.

Common to all, as to experiment: SPR
(In general: SPR reads the build-up and loss of mass on a sensor chip optically.)

In experiment [1] the target is T1, isolated CNBH domain of mouse EAG1 (mEAG1) channels, residues 552-708 (mouse, UniProt Q60603 552-708).
T1 sequence (looked up): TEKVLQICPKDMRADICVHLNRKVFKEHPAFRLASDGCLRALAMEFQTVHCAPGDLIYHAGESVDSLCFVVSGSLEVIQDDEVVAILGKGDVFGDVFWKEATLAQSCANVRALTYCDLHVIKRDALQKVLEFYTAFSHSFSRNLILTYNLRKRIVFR

Experiment [2] has as its target T1, isolated CNBH domain of mouse EAG1 …. This is another data set of the same source.
Experiment [3] shares this target. This is another data set of the same source.
The target is the same in experiment [4]. The source holds these as a separate data set.

B1: isolated PAS domain of mouse EAG1 (mEAG1) channels, residues 7-136 (domain or fragment, UniProt Q60603 7-136, looked up)
chain: RRGLVAPQNTFLENIVRRSNDTNFVLGNAQIVDWPIVYSNDGFCKLSGYHRAEVMQKSSACSFMYGELTDKDTVEKVRQTFENYEMNSFEILMYKKNRTPVWFFVKIAPIRNEQDKVVLFLCTFSDITAF
For orientation: Kd means the concentration at which binding is half-saturated. A higher Kd goes with a looser complex. B1: the Kd was 0.9 µM and 0.5 µM in experiment [1]; 1.6 µM in experiment [2]; 2.5 µM and 2.9 µM in experiment [3]; 1.8 µM in experiment [4].
